B1: Pistol ribozyme (parent)
chain: GGGUCGUUGUUCCAUAAUCGCGUGGAUAUGGCACGCAAGUUUCUACCGGGCACCGUAAAUGUCCGACUGGAGCCGUUCGGGCGGCUAUAAACAGACCUCAGGCCCGAAGCGUGGCGGCACCUGCCGCCGGUGGUAAAAAAGAUCGGAAGAGCACACGUCU

Variants of: B1
Test: aptazyme ON/OFF ratio, guanine; higher = stronger switching; co-transcriptional cleavage with and without guanine

Question: For U7C U8A G9C C12U C13U, which “aptazyme ON/OFF ratio” value is on record?
Answer: 1.19

Question: For U7C U8A G9C U10C U11G C12G C13G, which “aptazyme ON/OFF ratio” value is on record?
Answer: 1.11

Question: For U7C U8A G9C U10C U11G C12G C13A, which “aptazyme ON/OFF ratio” value is on record?
Answer: 1.11

Question: Which “aptazyme ON/OFF ratio” value does the source give for U7C U8A G9A U11G C12G C13U here?
Answer: 1.13

Question: Which “aptazyme ON/OFF ratio” value does the source give for U7C U8A G9A U11G C12G C13A here?
Answer: 1.12

Question: For U7C U8A G9A U11G C12G C13G, which “aptazyme ON/OFF ratio” value is on record?
Answer: 1.12

Question: With U7C U8A G9C U10C U11G C12A C13U as the variant, how does the “aptazyme ON/OFF ratio” value read?
Answer: 1.08

Question: For U7C U8A G9C U10C U11G C12A C13G, which “aptazyme ON/OFF ratio” value is on record?
Answer: 1.17

Question: Which “aptazyme ON/OFF ratio” value does the source give for U7C U8A G9C U10C U11G C12A C13A here?
Answer: 1.21

Question: With U7C U8A G9C U10A U11G C13U as the variant, how does the “aptazyme ON/OFF ratio” value read?
Answer: 1.16

Question: For U7C U8A G9C U10A U11G C13G, which “aptazyme ON/OFF ratio” value is on record?
Answer: 1.02

Question: Which “aptazyme ON/OFF ratio” value does the source give for U7C U8A G9C U10A U11G C13A here?
Answer: 1.12

Question: With U7C U8A G9C U10A U11C C12A C13U as the variant, how does the “aptazyme ON/OFF ratio” value read?
Answer: 1.15

Question: For U7C U8A G9C U10A U11C C12A C13A, which “aptazyme ON/OFF ratio” value is on record?
Answer: 1.19

Question: With U7C U8A G9C U10A U11C C12A C13G as the variant, how does the “aptazyme ON/OFF ratio” value read?
Answer: 1.14

Question: For U7C U8A G9C U10C C12A, which “aptazyme ON/OFF ratio” value is on record?
Answer: 1.04

Question: Which “aptazyme ON/OFF ratio” value does the source give for U7C U8A G9C U10C C12G here?
Answer: 1.03

Question: With U7C U8A G9C U10C C12U as the variant, how does the “aptazyme ON/OFF ratio” value read?
Answer: 1.15

Question: For U7C U8A G9C, which “aptazyme ON/OFF ratio” value is on record?
Answer: 1.04

Question: With U7C U8A G9A U10C U11G C13A as the variant, how does the “aptazyme ON/OFF ratio” value read?
Answer: 1.15

Question: For U7C U8A G9A U10C U11G C13U, which “aptazyme ON/OFF ratio” value is on record?
Answer: 1.1

Question: Which “aptazyme ON/OFF ratio” value does the source give for U7C U8A G9A U10C U11G C13G here?
Answer: 1.13

Question: With U7C U8A G9A U11C C12U C13U as the variant, how does the “aptazyme ON/OFF ratio” value read?
Answer: 1.2

Question: With U7C U8A G9A U11C C12U C13A as the variant, how does the “aptazyme ON/OFF ratio” value read?
Answer: 1.17

Question: For U7C U8A G9A U11C C12U C13G, which “aptazyme ON/OFF ratio” value is on record?
Answer: 1.09

Question: Which “aptazyme ON/OFF ratio” value does the source give for U7C U8A G9C U10A C13U here?
Answer: 1.24

Question: Which “aptazyme ON/OFF ratio” value does the source give for U7C U8A G9C U10A C13G here?
Answer: 1.07

Question: Which “aptazyme ON/OFF ratio” value does the source give for U7C U8A G9C U10A C13A here?
Answer: 1.17

Question: For U7C U8A G9A U10G U11C C12U C13U, which “aptazyme ON/OFF ratio” value is on record?
Answer: 1.17

Question: For U7C U8A G9A U10G U11C C12U C13A, which “aptazyme ON/OFF ratio” value is on record?
Answer: 1.15

Question: Which “aptazyme ON/OFF ratio” value does the source give for U7C U8A G9A U10G U11C C12U C13G here?
Answer: 1.14

Question: Which “aptazyme ON/OFF ratio” value does the source give for U7C U8A G9C C12G C13G here?
Answer: 1.14

Question: With U7C U8A G9C C12G C13A as the variant, how does the “aptazyme ON/OFF ratio” value read?
Answer: 1.14

Question: Which “aptazyme ON/OFF ratio” value does the source give for U7C U8A G9C C12G C13U here?
Answer: 1.09

Question: Which “aptazyme ON/OFF ratio” value does the source give for U7C U8A G9A U10C U11A C12A here?
Answer: 1.12

Question: With U7C U8A G9A U10C U11A C12G as the variant, how does the “aptazyme ON/OFF ratio” value read?
Answer: 1.14

Question: For U7C U8A G9A U10C U11A C12U, which “aptazyme ON/OFF ratio” value is on record?
Answer: 1.28

Question: With U7C U8A G9A U11C as the variant, how does the “aptazyme ON/OFF ratio” value read?
Answer: 1.06

Question: For U7C U8A G9A U11A, which “aptazyme ON/OFF ratio” value is on record?
Answer: 1.17

Question: For U7C U8A G9A U11G, which “aptazyme ON/OFF ratio” value is on record?
Answer: 1.09

Question: Which “aptazyme ON/OFF ratio” value does the source give for U7C U8A G9C U10C U11C C12G C13G here?
Answer: 1.04

Question: With U7C U8A G9C U10C U11C C12G C13A as the variant, how does the “aptazyme ON/OFF ratio” value read?
Answer: 1.04

Question: For U7C U8A G9C U10C U11C C12G C13U, which “aptazyme ON/OFF ratio” value is on record?
Answer: 1.04

Question: For U7C U8A G9A U10C C13A, which “aptazyme ON/OFF ratio” value is on record?
Answer: 1.03

Question: For U7C U8A G9A U10C C13G, which “aptazyme ON/OFF ratio” value is on record?
Answer: 1.05

Question: With U7C U8A G9A U10C C13U as the variant, how does the “aptazyme ON/OFF ratio” value read?
Answer: 1.51

Question: With U7C U8A G9A U10G U11C C12G C13A as the variant, how does the “aptazyme ON/OFF ratio” value read?
Answer: 1.13

Question: For U7C U8A G9A U10G U11C C12G C13U, which “aptazyme ON/OFF ratio” value is on record?
Answer: 1.25

Question: For U7C U8A G9A U10G U11C C12G C13G, which “aptazyme ON/OFF ratio” value is on record?
Answer: 1.21

Question: For U7C U8A G9A U10C U11C C12G, which “aptazyme ON/OFF ratio” value is on record?
Answer: 1.09

Question: For U7C U8A G9A U10C U11C C12A, which “aptazyme ON/OFF ratio” value is on record?
Answer: 1.09

Question: With U7C U8A G9A U10C U11C C12U as the variant, how does the “aptazyme ON/OFF ratio” value read?
Answer: 1.04

Question: For U7C U8A G9A U10C C12G C13U, which “aptazyme ON/OFF ratio” value is on record?
Answer: 1.19

Question: For U7C U8A G9A U10C C12G C13A, which “aptazyme ON/OFF ratio” value is on record?
Answer: 1.13

Question: With U7C U8A G9A U10C C12G C13G as the variant, how does the “aptazyme ON/OFF ratio” value read?
Answer: 1.1

Question: Which “aptazyme ON/OFF ratio” value does the source give for U7C U8A G9A U10G U11A C12A C13G here?
Answer: 1.17

Question: With U7C U8A G9A U10G U11A C12A C13U as the variant, how does the “aptazyme ON/OFF ratio” value read?
Answer: 1.17

Question: With U7C U8A G9A U10G U11A C12A C13A as the variant, how does the “aptazyme ON/OFF ratio” value read?
Answer: 1.18

Question: With U7C U8A G9C U10A U11G C12A C13A as the variant, how does the “aptazyme ON/OFF ratio” value read?
Answer: 1.13

Question: Which “aptazyme ON/OFF ratio” value does the source give for U7C U8A G9C U10A U11G C12A C13U here?
Answer: 1.14

Question: With U7C U8A G9C U10A U11G C12A C13G as the variant, how does the “aptazyme ON/OFF ratio” value read?
Answer: 1.12

Question: With U7C U8A G9A U10G U11G C12U C13U as the variant, how does the “aptazyme ON/OFF ratio” value read?
Answer: 1.2

Question: Which “aptazyme ON/OFF ratio” value does the source give for U7C U8A G9A U10G U11G C12U C13G here?
Answer: 1.14

Question: With U7C U8A G9A U10G U11G C12U C13A as the variant, how does the “aptazyme ON/OFF ratio” value read?
Answer: 1.11

Question: For U7C U8A G9A U11A C12G C13G, which “aptazyme ON/OFF ratio” value is on record?
Answer: 1.19

Question: For U7C U8A G9A U11A C12G C13U, which “aptazyme ON/OFF ratio” value is on record?
Answer: 1.19

Question: For U7C U8A G9A U11A C12G C13A, which “aptazyme ON/OFF ratio” value is on record?
Answer: 1.15

Question: Which “aptazyme ON/OFF ratio” value does the source give for U7C U8A G9C U10A U11A C12G C13G here?
Answer: 1.12

Question: Which “aptazyme ON/OFF ratio” value does the source give for U7C U8A G9C U10A U11A C12G C13U here?
Answer: 1.16

Question: Which “aptazyme ON/OFF ratio” value does the source give for U7C U8A G9C U10A U11A C12G C13A here?
Answer: 1.1

Question: Which “aptazyme ON/OFF ratio” value does the source give for U7C U8A G9C U10C C12A C13G here?
Answer: 1.07

Question: For U7C U8A G9C U10C C12A C13A, which “aptazyme ON/OFF ratio” value is on record?
Answer: 1.05

Question: With U7C U8A G9C U10C C12A C13U as the variant, how does the “aptazyme ON/OFF ratio” value read?
Answer: 1.06

Question: With U7C U8A G9A U10G U11G C13A as the variant, how does the “aptazyme ON/OFF ratio” value read?
Answer: 1.11

Question: With U7C U8A G9A U10G U11G C13G as the variant, how does the “aptazyme ON/OFF ratio” value read?
Answer: 1.05

Question: Which “aptazyme ON/OFF ratio” value does the source give for U7C U8A G9A U10G U11G C13U here?
Answer: 1.04

Question: Which “aptazyme ON/OFF ratio” value does the source give for U7C U8A G9A U10G C13A here?
Answer: 1.17

Question: Which “aptazyme ON/OFF ratio” value does the source give for U7C U8A G9A U10G C13G here?
Answer: 1.08

Question: Which “aptazyme ON/OFF ratio” value does the source give for U7C U8A G9A U10G C13U here?
Answer: 1.39

Question: Which “aptazyme ON/OFF ratio” value does the source give for U7C U8A G9A U10G U11A C13G here?
Answer: 1.05

Question: For U7C U8A G9A U10G U11A C13U, which “aptazyme ON/OFF ratio” value is on record?
Answer: 1.03

Question: With U7C U8A G9A U10G U11A C13A as the variant, how does the “aptazyme ON/OFF ratio” value read?
Answer: 1.04

Question: For U7C U8A G9C C12U, which “aptazyme ON/OFF ratio” value is on record?
Answer: 1.05

Question: Which “aptazyme ON/OFF ratio” value does the source give for U7C U8A G9C C12A here?
Answer: 1.17
